From the RNAGym collection of RNA variant scans (doi:10.1093/molbev/msab373)

B1: Azoarcus group I ribozyme (parent)
chain: GUGCCUUGCGCCGGGAAACCACGCAAGGGAUGGUGUCAAAUUCGGCGAAACCUAAGCGCCCGCCCGGGCGUAUGGCAACGCCGAGCCAAGCUUCGGCGCCUGCGCCGAUGAAGGUGUAGAGACUAGACGGCACCCACCUAAGGCAAACGCUAUGGUGAAGGCAUAGUCCAGGGAGUGGCGAAAGUCACACAAACCGG

Variants of: B1
Assay: reverse-splicing fitness (ratio to wild type); higher = more active; in vitro selection; Mg2+ level not given
Outline: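 An in vitro group I ribozyme library with randomized positions was T7-transcribed and gel-purified. In triplicate, 10 pmol RNA in EPPS pH 7.5 was reacted with 50 pmoles of a 30-nt RNA substrate for 1 h at 37 °C across several added MgCl2 levels (1–48 mM), then stopped with EDTA. Products were reverse transcribed from a substrate-complementary primer, PCR-amplified and sequenced (HiSeq 4000). Fitness is a variant's read proportion after selection over that before, normalised to wild type.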

Which reverse-splicing fitness does the source give for GUGCCUUGCGCCGGGAAACCACGCAAGGGAUGGUGUCAAAUUCGGCGAAACCUAAGCGCCCGCCCGGGCGUAUGGCAACGCUGAGCCAAGCUUCGGCGCCUGCGCCGAUGCAGGUGUAGCGACUAGACGGCACCCACCUAAGGCGAACGUUAUGGUGAAGGCAUAGUCCAGGGAGAGGCGAAAGUCACACAAACCGG [C82U A111C A120C A145G C150U U176A] here?
The reverse-splicing fitness was 0.0113.

For GUGCCUUGCGCCGGGAAACCACGCAAGGGAUGGUGUCAAAUUCGGCGAAACCUAAGCGCCCGCCCGGGCGUAUGGCAACGCUGAGCCAAGCUUCGGCGCCUGCGCCGAUGCAGGUGUAGCGACUAGACGGCACCCACCUAAGGCGAACGUUAUGGUGAAGGCAUAGUCCAGGGAGGGGCGAAAGUCACACAAACCGG [C82U A111C A120C A145G C150U U176G], which reverse-splicing fitness is on record?
The reverse-splicing fitness was 0.00635.

Which reverse-splicing fitness does the source give for GUGCCUUGCGCCGGGAAACCACGCAAGGGAUGGUGUCAAAUUCGGCGAAACCUAAGCGCCCGCCCGGGCGUAUGGCAACGCUGAGCCAAGCUUCGGCGCCUGCGCCGAUGCAGGUGUAGCGACUAGACGGCACCCACCUAAGGCGAACGUUAUGGUGAAGGCAUAGUCCAGGGAGCGGCGAAAGUCACACAAACCGG [C82U A111C A120C A145G C150U U176C] here?
The reverse-splicing fitness was 0.0186.

Which reverse-splicing fitness does the source give for GUGCCUUGCGCCGGGAAACCACGCAAGGGAUGGUGUCAAAUUCGGCGAAACCUAAGCGCCCGCCCGGGCGUAUGGCAACGCUGAGCCAAGCUUCGGCGCCUGCGCCGAUGCAGGUGUAGCGACUAGACGGCACCCACCUAAGGCGAACGUUAUGGUGAAGGCAUAGUCGAGGGAGCGGCGAAAGUCACACAAACCGG [C82U A111C A120C A145G C150U C169G U176C] here?
Its reverse-splicing fitness is 0.0151.

Which reverse-splicing fitness does the source give for GUGCCUUGCGCCGGGAAACCACGCAAGGGAUGGUGUCAAAUUCGGCGAAACCUAAGCGCCCGCCCGGGCGUAUGGCAACGCUGAGCCAAGCUUCGGCGCCUGCGCCGAUGCAGGUGUAGCGACUAGACGGCACCCACCUAAGGCGAACGUUAUGGUGAAGGCAUAGUCGAGGGAGGGGCGAAAGUCACACAAACCGG [C82U A111C A120C A145G C150U C169G U176G] here?
Its reverse-splicing fitness is 0.00547.

With GUGCCUUGCGCCGGGAAACCACGCAAGGGAUGGUGUCAAAUUCGGCGAAACCUAAGCGCCCGCCCGGGCGUAUGGCAACGCUGAGCCAAGCUUCGGCGCCUGCGCCGAUGCAGGUGUAGCGACUAGACGGCACCCACCUAAGGCGAACGUUAUGGUGAAGGCAUAGUCGAGGGAGAGGCGAAAGUCACACAAACCGG [C82U A111C A120C A145G C150U C169G U176A] as the variant, how does the reverse-splicing fitness read?
The reverse-splicing fitness was 0.0115.

Which reverse-splicing fitness does the source give for GUGCCUUGCGCCGGGAAACCACGCAAGGGAUGGUGUCAAAUUCGGCGAAACCUAAGCGCCCGCCCGGGCGUAUGGCAACGCUGAGCCAAGCUUCGGCGCCUGCGCCGAUGCAGGUGUAGCGACUAGACGGCACCCACCUAAGGCGAACGCUAUGGUGAAGGCAUAGUCAAGGGAGGGGCGAAAGUCACACAAACCGG [C82U A111C A120C A145G C169A U176G] here?
Its reverse-splicing fitness is 0.00658.

For GUGCCUUGCGCCGGGAAACCACGCAAGGGAUGGUGUCAAAUUCGGCGAAACCUAAGCGCCCGCCCGGGCGUAUGGCAACGCUGAGCCAAGCUUCGGCGCCUGCGCCGAUGCAGGUGUAGCGACUAGACGGCACCCACCUAAGGCGAACGCUAUGGUGAAGGCAUAGUCAAGGGAGAGGCGAAAGUCACACAAACCGG [C82U A111C A120C A145G C169A U176A], which reverse-splicing fitness is on record?
The reverse-splicing fitness was 0.0198.

Which reverse-splicing fitness does the source give for GUGCCUUGCGCCGGGAAACCACGCAAGGGAUGGUGUCAAAUUCGGCGAAACCUAAGCGCCCGCCCGGGCGUAUGGCAACGCUGAGCCAAGCUUCGGCGCCUGCGCCGAUGCAGGUGUAGCGACUAGACGGCACCCACCUAAGGCGAACGCUAUGGUGAAGGCAUAGUCAAGGGAGCGGCGAAAGUCACACAAACCGG [C82U A111C A120C A145G C169A U176C] here?
The reverse-splicing fitness was 0.0232.

For GUGCCUUGCGCCGGGAAACCACGCAAGGGAUGGUGUCAAAUUCGGCGAAACCUAAGCGCCCGCCCGGGCGUAUGGCAACGCUGAGCCAAGCUUCGGCGCCUGCGCCGAUGCAGGUGUAGCGACUAGACGGCACCCACCUAAGGCGAACGCUAUGGUGAAGGCAUAGUCAAGGGAGUGGCGAAAGUCACACAAACCGG [C82U A111C A120C A145G C169A], which reverse-splicing fitness is on record?
The reverse-splicing fitness was 0.0092.

For GUGCCUUGCGCCGGGAAACCACGCAAGGGAUGGUGUCAAAUUCGGCGAAACCUAAGCGCCCGCCCGGGCGUAUGGCAACGCUGAGCCAAGCUUCGGCGCCUGCGCCGAUGCAGGUGUAGCGACUAGACGGCACCCACCUAAGGCGAACGUUAUGGUGAAGGCAUAGUCUAGGGAGGGGCGAAAGUCACACAAACCGG [C82U A111C A120C A145G C150U C169U U176G], which reverse-splicing fitness is on record?
Its reverse-splicing fitness is 0.00546.

For GUGCCUUGCGCCGGGAAACCACGCAAGGGAUGGUGUCAAAUUCGGCGAAACCUAAGCGCCCGCCCGGGCGUAUGGCAACGCUGAGCCAAGCUUCGGCGCCUGCGCCGAUGCAGGUGUAGCGACUAGACGGCACCCACCUAAGGCGAACGUUAUGGUGAAGGCAUAGUCUAGGGAGAGGCGAAAGUCACACAAACCGG [C82U A111C A120C A145G C150U C169U U176A], which reverse-splicing fitness is on record?
The reverse-splicing fitness was 0.0156.

Which reverse-splicing fitness does the source give for GUGCCUUGCGCCGGGAAACCACGCAAGGGAUGGUGUCAAAUUCGGCGAAACCUAAGCGCCCGCCCGGGCGUAUGGCAACGCUGAGCCAAGCUUCGGCGCCUGCGCCGAUGCAGGUGUAGCGACUAGACGGCACCCACCUAAGGCGAACGUUAUGGUGAAGGCAUAGUCUAGGGAGCGGCGAAAGUCACACAAACCGG [C82U A111C A120C A145G C150U C169U U176C] here?
Its reverse-splicing fitness is 0.0139.

Which reverse-splicing fitness does the source give for GUGCCUUGCGCCGGGAAACCACGCAAGGGAUGGUGUCAAAUUCGGCGAAACCUAAGCGCCCGCCCGGGCGUAUGGCAACGCUGAGCCAAGCUUCGGCGCCUGCGCCGAUGCAGGUGUAGCGACUAGACGGCACCCACCUAAGGCGAACGUUAUGGUGAAGGCAUAGUCUAGGGAGUGGCGAAAGUCACACAAACCGG [C82U A111C A120C A145G C150U C169U] here?
Its reverse-splicing fitness is 0.012.

With GUGCCUUGCGCCGGGAAACCACGCAAGGGAUGGUGUCAAAUUCGGCGAAACCUAAGCGCCCGCCCGGGCGUAUGGCAACGCUGAGCCAAGCUUCGGCGCCUGCGCCGAUGCAGGUGUAGCGACUAGACGGCACCCACCUAAGGCGAACGUUAUGGUGAAGGCAUAGUCGAGGGAGUGGCGAAAGUCACACAAACCGG [C82U A111C A120C A145G C150U C169G] as the variant, how does the reverse-splicing fitness read?
The reverse-splicing fitness was 0.00807.
